Measured values taken from the RNAGym collection of RNA variant scans (doi:10.1073/pnas.2313332121).

B1: TPR t1 (parent)
chain: GACCAAUCUGCCCUCAGAGCUCGAGAACAUCUUCGGAUGCAGAGGAGGCAGGCUUCGGUGGCGCGAUAGCGCCAACGUCCUCAACCUCCAAUGCAUCCCACCACAUGAUGAUGCCUGAAGAGCCUUGGUUUUUUG

Variants of: B1
Experiment: polymerase ribozyme fitness, log enrichment relative to wild type (log ratio); higher = more active; in vitro selection for triplet polymerase activity
How it was run: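 After PCR construction and transcription, each subunit's mutant library from a heterodimeric triplet polymerase ribozyme was annealed with a biotinylated primer, the partner subunit and triplets. Incubation was frozen, at −7 °C, and extended constructs were gel-excised, bound to streptavidin beads and amplified by RT-PCR, in one selection round done in triplicate. Fitness is the logarithm of a genotype's enrichment divided by that of the wild type, from inverse-variance-weighted replicate averages of Illumina-sequenced inputs and outputs. The base of the logarithm is 2, and genotypes needed ≥10 input reads and ≥1 read per output.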

Variant	polymerase ribozyme fitness (log ratio)
C12U G47U C85U U129G	-3.07
C12U A43U C56G	-1.63
C12G C89U	-0.711
C12U C13A G60C A121U	1
C12U G17U C94U G113A	-2.71
C12U G36U	-0.34
C12U C76U	-0.504
C12U G48A C115G U129A G135U	-2.25
C12U A50U	-1.64
C12U G39C G127C U133A	-1.79
C12U G48A U131A	-0.967
C12U C34G G127A	-6.04
C12U C76G C79A C99U U126C	-5.59
C12G U92C G120U	1.41
C12U G25U	-6.45
C12U C31U G77U U87C C123U	-3.57
C12U C28G	-1.98
C12G C22U U32G C102A A111U G122U	-7.04
C12U A29C U131G	-2.88
C12U C20U U96C	-0.583
C12U A41U C56A U87A C114U	-3.21
C12U A37U C85U G93C G120A	0.532
C12G C49A G63U C72U C89A	-3.61
C12G U54C G61C	-2.85

Variant	polymerase ribozyme fitness (log ratio)
C12G G44U G60U A100U	-0.779
C12U A18C A29G C82U U92A	-3.51
C12G C62G A108G	-3.58
C12U C79U	0.083
C12G G39A C89A U106C	-2.19
C12G C72A C104U C123U C124A	1.79
C12G U55C C88A C104G G113A C123G C124A	-6.5
C12G C53A C73G G107C U112C	-3.66
C12G C73G C88G	-1.78
C12U G39A C72G C85U	-1.34
C12U A108G U130A	-3.19
C12U C13U U38C C40A A91U	-3.21
C12U A46C C53G G71C A84C A95C	-2.46
C12U C49G G61C	-1.89
C12G U14G G52C G61A C82A C88A A118U	-2.32
C12U C49A C76G C80G C88A U92C U112C	-7.46
C12U C22U U59C C89G U109A U116A C123G	-7.4
C12U C15G C79A C85G G120A	-2.63
C12U C64U C98U	-0.396
C12U G63U	-0.968
C12G C40G	-1.2
C12G G44U A90C A121U	0.668
C12U C22A	-4.93
C12U C53G C97A	-5.8

Variant	polymerase ribozyme fitness (log ratio)
C12G C82U A105U U106A U109G	-1.76
C12U C13U G42U G51C U116G	-7.04
C12U A43C A90U	-0.274
C12G G36U U132A	-1.56
C12U A29U G52C C73U	-1.91
C12G G39U G60U C80G C123U	-4.73
C12U C15G G71C G127C	-4.84
C12G C28U	-0.928
C12G U14G A24G C49A G61U G77U C104U	-6.42
C12U G47U C73A C86G G122A	-0.298
C12G G45A G107U	-5.21
C12U C15U	-0.154
C12G C82U C97A	-3.58
C12G U96G G117U	-2.18
C12U C49A U96C	-0.405
C12U G61C	-1.48
C12G U33G C70U U87G A118U U125A	-5.53
C12U A37U A119U	-0.00616
C12G C64U	0.291
C12G C64G	-5.49
C12U C13U C97A C123U C124A	-2.92
C12U C34A	-2.28
C12U G23A G120A	-3.8
C12U G39U G63U G77C	-3.85

Variant	polymerase ribozyme fitness (log ratio)
C12U C13U	-0.904
C12G G61C	-0.968
C12U G39U G113U U116G	-5.84
C12U C13U A43G G61A	-2.1
C12U C13U C20A G47C C86U	-2.7
C12U A27G A66C C73A U78C C101A	-4.25
C12G U33G	-4.76
C12G U21A G71U U78A A121U	-0.676
C12G C123U	1.34
C12U C22U U59C C85G	-4.46
C12U C40U A90G	0.0487
C12U C15U U38C A43C C123A	-1.45
C12U G60U	0.415
C12U C124G	2.23
C12U A37U G60C	-1.06
C12U C72U C104A U125G	-1.99
C12U A46U C49U G63C A90C	-4.26
C12U C115U	-0.992
C12U A16G C73U C102A	-1.8
C12U A27G C40U C56U C86U C102U	-3.62
C12U A27G G47A G51A G58A G61C A103G A121G	-7.4
C12G C40A A50C C80A A84C C104U	-3.24
C12G G65A	-3.6
C12U C13G C70G	-2.49

Variant	polymerase ribozyme fitness (log ratio)
C12U C13A C72G U78C	-1.57
C12G U21C A29U C123U U131A	-1.87
C12G C72U U116A G120U	-0.787
C12G C56A	0.208
C12U A37U A111G C123A	-0.195
C12G C34G C114A	-6.75
C12U A74U C80A C97U A121G U133A	-0.836
C12U G69C U81C G110U	-3.57
C12U C13G C20A A37G A46U G77A G120A	-2.45
C12U C34A C53U C72U	-2.62
C12G G113A	-0.4
C12U C99U	-2.6
C12U A111U	-2.01
C12U A111G	0.95
C12U C49U C97U	-1.6
C12U G17C G71A C97G C115G	-4.83
C12U A66G A74U	-1.17
C12G C62U U116A	-2.68
C12U G36C G117U	-0.382
C12G C22G	-3.07
C12G G19C G23C U59C G60U	-6.79
C12U A75G G128A	-1.43
C12U C49U G77A C97A C98A U109A A119U G127C	-6.68
C12U G51U C73A U92A G113U U116G	-7.04

Variant	polymerase ribozyme fitness (log ratio)
C12U C56A C73A U78C A111G U129G	-1.25
C12U C72U U130G	-0.295
C12U G47A C102A	-2.63
C12U A83C	0.0344
C12U G39A C72A A74G C79U C80G	-5.3
C12U A100U	-0.242
C12U G48A G51U C56A	-2.84
C12G C53A	0.285
C12U C20G A43C G48A C62U	-6.08
C12U A18C G71U U131C	-1.9
C12G G42A G52A C62U C104A	-5.44
C12U C104U	0.248
C12U C62G G122U	-0.331
C12G C49G C70A C97U	-1.84
C12U G39A C56A	-0.34
C12U A27C C62A A83U	-6.02
C12G C88U A105U C123A	-0.335
C12U C20U A43U G45A C56G G113A	0.057
C12G C28U G36U G60A A83C C97U	-3.31
C12U A18G C20U C94U G117U	0.203
C12U C86U A103U A111U	-4.99
C12U C72U U81G	-3.47
C12G C56A C70G	-3.89
C12U G45A G48A	-0.563

Variant	polymerase ribozyme fitness (log ratio)
C12G G48A G60A G93A	-1.03
C12U G63U C85G C88A	-4.33
C12U G60C U112G	0.137
C12G C114U	-1.65
C12U C13A C114G	-4
C12G C72U	0.127
C12U G17C A29G C82A A90U A95C U106C G120A A121U	-6.75
C12U A41U A50U G57C C76G C99U	-7.02
C12U A18U	-2.21
C12U G51A U78C	-2.26
C12G C34G G69U A83C	-3.04
C12G C62U A75C A108G	-2.34
C12U A16G C20U C64A A84U U112G G113U	-7.14
C12U C20A C28U A37G G42A G45U A46U G48A C82U G110A A111U A119G	-4.23
C12U G42U G77U G117U U126C	-1.93
C12U A119C A121C	-2.21
C12G G19A G63U C79G U81G U112C G117U	-7.76
C12U G25A G93C G120C	-7.38
C12U G48U A111C	-0.108
C12U C20U C40U C49G	-1.67
C12U G71A	-0.123
C12G U14A	-1.56
C12U C56A G69A U129A	-5.35
